Assay results from article doi:10.1101/2020.05.22.111005 (bioRxiv, 2020).

B1: COV2-2196 (human mAb) (antibody, V domains shown)
VH: QMQLVQSGPEVKKPGTSVKVSCKASGFTFMSSAVQWVRQARGQRLEWIGWIVIGSGNTNYAQKFQERVTITRDMSTSTAYMELSSLRSEDTAVYYCAAPYCSSISCNDGFDIWGQGTMVTVSS
VL: not shown
B2: COV2-2165 (human mAb) (antibody, V domains shown)
VH: EVQLVESGGGLVQPGGSLRLSCAASGLTVRSNYMTWVRQTPGKGLEWVSVIYSGGSTFYADSVKGRFTISRDNSKNTVYLQMNSLRAEDTAVYYCARDLVTYGLDVWGQGTTVTVSS
VL: DIQLTQSPSFLSASVGDRVTITCRASQGISNYLAWYQQKPGTAPNLLIYAASTLQSGVPSRFSGSGSGTEFTLTISSLQPEDFATYYCQLLNSHPLTFGQGTRLEIK

Target: SARS-CoV-2 RBD fused to mouse Fc (RBD-mFc) (SARS-CoV-2, UniProt P0DTC2)
Experiment: BLI

| Binder | binding result |
| --- | --- |
| B1 | binds |
| B2 | binds |
